Reference: patent publication US20100041596A1

How the values were obtained:
Conditions in all cases: remark: other sources report otherwise
[1] = biological target: T1, p60 TNFR, full-length (Homo sapiens (Human)), P19438; assay: DTSSP crosslinking of H9 cells with or without TNFα, non-reducing gel, anti-p60 blot
T1 chain: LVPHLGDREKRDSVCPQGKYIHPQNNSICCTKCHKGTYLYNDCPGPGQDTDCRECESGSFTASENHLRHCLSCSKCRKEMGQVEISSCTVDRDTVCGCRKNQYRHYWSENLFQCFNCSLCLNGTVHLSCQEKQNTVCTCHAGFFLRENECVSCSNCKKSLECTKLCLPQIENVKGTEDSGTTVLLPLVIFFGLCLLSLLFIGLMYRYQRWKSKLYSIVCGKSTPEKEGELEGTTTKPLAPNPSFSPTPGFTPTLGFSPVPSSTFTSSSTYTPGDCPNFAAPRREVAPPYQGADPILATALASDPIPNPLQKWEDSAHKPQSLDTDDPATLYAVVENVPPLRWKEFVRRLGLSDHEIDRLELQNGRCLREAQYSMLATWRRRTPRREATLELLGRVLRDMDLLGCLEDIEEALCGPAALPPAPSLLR

[2] = biological target: T2, Fas fusion proteins with the death domain (CFP and YFP) (Homo sapiens (Human)), P25445; assay: CFP dequenching after YFP photobleaching, microscope
T2 chain: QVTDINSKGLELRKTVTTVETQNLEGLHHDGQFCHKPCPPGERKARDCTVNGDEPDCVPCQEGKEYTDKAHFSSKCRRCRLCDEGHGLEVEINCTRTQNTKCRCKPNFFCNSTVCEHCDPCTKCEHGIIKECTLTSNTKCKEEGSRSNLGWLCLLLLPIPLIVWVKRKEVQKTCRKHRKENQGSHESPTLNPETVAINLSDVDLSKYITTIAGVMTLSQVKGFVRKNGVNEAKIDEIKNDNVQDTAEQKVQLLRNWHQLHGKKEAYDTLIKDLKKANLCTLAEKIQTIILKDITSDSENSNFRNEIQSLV

[3] = biological target: T3, native Fas receptor of H9 lymphoma cells (Homo sapiens (Human)), P25445; assay: DTSSP crosslinking of H9 cells, deglycosylated lysates, anti-Fas blot
T3 chain: T2 chain

B1: p60 TNFR, full-length, P19438 30-455 (receptor)
chain: T1 chain
In the case of B1, the percent of chains cross-linked as apparent trimers and higher order complexes [1] is reported as 15 to 20%.

B2: Fas fusion proteins with the death domain (CFP and YFP), P25445 26-335 (receptor, not shown: large carriers)
chain: T2 chain
With B2 the FRET efficiency (E%) [2] was 27%.

B3: native Fas receptor of H9 lymphoma cells, P25445 26-335 (receptor)
chain: T2 chain
B3 gave a percent of chains cross-linked as trimers (densitometry) [3] of 60%.
